From patent publication US20090137484A1, “Neuronal Network-Interacting Peptide” (NATIONAL UNIVERSITY OF SINGAPORE, priority 2004, published 2009) come the findings set out here.

T1: Grb4 SH3_2 (second SH3 domain, Grb4 residues 115-170) (Homo sapiens, UniProt O43639)
T1 construct: corresponding to the human Grb4 residues 5-61; 115-171 and 199-257 respectively; His-tag; made in house; host or cells: E. coli BL21
T1 sequence (O43639 115-171): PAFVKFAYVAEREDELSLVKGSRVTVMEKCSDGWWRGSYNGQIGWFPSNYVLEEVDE

T2: Grb4 SH3_3 (third SH3 domain, Grb4 residues 199-257) (Homo sapiens, UniProt O43639)
T2 construct: corresponding to the human Grb4 residues 5-61; 115-171 and 199-257 respectively; His-tag; made in house; host or cells: E. coli BL21
T2 sequence (O43639 198-256): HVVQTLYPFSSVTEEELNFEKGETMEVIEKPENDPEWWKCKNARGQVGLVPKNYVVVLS

T3: Grb4 SH3_3 (third SH3 domain, Grb4 residues 199-257) (Homo sapiens, UniProt O43639)
T3 construct: corresponding to the human Grb4 residues 5-61; 115-171 and 199-257 respectively; His-tag; made in house; host or cells: E. coli BL21
T3 sequence (O43639 199-257): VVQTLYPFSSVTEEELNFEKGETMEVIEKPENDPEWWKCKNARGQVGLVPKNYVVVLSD

T4: Grb4 SH3_23 (second and third SH3 domains, Grb4 residues 115-257) (Homo sapiens, UniProt O43639)
T4 construct: Grb4 (115-257) containing the second and third SH3 domains were expressed; His-tag; made in house; host or cells: E. coli BL21
T4 sequence (O43639 115-257): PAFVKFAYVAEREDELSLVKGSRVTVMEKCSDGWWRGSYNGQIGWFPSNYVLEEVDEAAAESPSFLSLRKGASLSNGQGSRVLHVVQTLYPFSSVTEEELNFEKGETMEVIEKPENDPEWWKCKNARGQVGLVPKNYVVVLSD

B1: Nogo-A (32-200) (other)
chain: EDEEEEEEEEEEDEDEDLEELEVLERKPAAGLSAAPVPTAPAAGAPLMDFGNDFVPPAPRGPLPAAPPVAPERQPSWDPSPVSSTVPAPSPLSAAAVSPSKLPEDDEPPARPPPPPPASVSPQAEPVWTPPAPAPAAPPSTPAAPKRRGSSGSVDETLFALPAASEPVI
notes: Recombinant, cloned into pET32a and expressed in E. coli
B2: Nogo-A (171-181) Ac-STPAAPKRRGS-NH2 (peptide)
peptide: Ac-STPAAPKRRGS-NH2
notes: Chemically synthesised by the Fmoc method; also called 11-residue Nogo-A (171-181) peptide
B3: third Grb4 SH3 domain, Grb4 residues 199-257 (other, human, UniProt O43639 199-257, looked up)
chain: T3 sequence (O43639 199-257)
modifications: also: His-tag, sequence and removal not given here, 15N-labelled
notes: range 199-257; Expressed in E. coli as a His-tagged protein; It was 15N-labelled for NMR; also called SH3_3
B4: Nogo-A (1-200): recombinant N-terminal fragment of human Nogo-A, residues 1-200, expressed in E. coli (protein)
chain: MEDLDQSPLVSSSDSPPRPQPAFKYQFVREPEDEEEEEEEEEEDEDEDLEELEVLERKPAAGLSAAPVPTAPAAGAPLMDFGNDFVPPAPRGPLPAAPPVAPERQPSWDPSPVSSTVPAPSPLSAAAVSPSKLPEDDEPPARPPPPPPASVSPQAEPVWTPPAPAPAAPPSTPAAPKRRGSSGSVDETLFALPAASEPVI

Where a SMILES comes first, the peptide text is derived from it. Where no end group is shown, it is not given here.

Experiment [1] concerns the target T1, Grb4 SH3_2 (second SH3 domain, Grb4 residues 115-170). The experiment in a line: 1H-15N NMR HSQC titration of Nogo fragments with Grb4 SH3_2. It is filed as binding. Particulars: for Binding detected by NMR: Grb4 fragment SH3_2. The procedure:
(§1) All calorimetric titrations were performed on a Microcal VP ITC machine (Microcal, USA). The protein/peptide samples were dissolved in the 50 mM Tris buffer (pH 7.0), with 3 mM 2-mercaptoethanol. After centrifugation for 15 min, the samples were degassed for 15 min to avoid the bubble formation. The Grb4 SH3 samples with a concentration of 0.025 or 0.05 mM were placed in the 1.4 ml reaction cell and 1.0 mM Nogo samples were loaded into the […] injection syringe. All titrations were performed at 25° C. and the obtained data was fitted using the ORIGIN software (Originlab Corporation). NMR experiments were performed on a 500 MHz Bruker DRX spectrometer equipped with an actively shielded cryoprobe and an 800 MHz Bruker Avance spectrometer (Sattler, M., et al., (1999) Prog. NMR Spectrosc. 34, 93-158.). NMR data was processed with NMRPipe (Delaglio, F et al., (1995) J. Biomol. NMR 6, 277-293) and analysed with NMRView (Johnson, B. A. & Blevins, R. A. (1994). J. Biomol. NMR 4, 603-614.).
The ^1H-^15N HSQC titration experiments were conducted according to our previous procedure (Song J. (2003) J Biol Chem. 278, 24714-20). For structure determination, backbone sequential assignments were achieved by analysing HNCACB, CBCA(CO)NH, HNCO experiments while side chain assignments were obtained from (H)CC(CO)NH, H(CCO)NH, HCCH-TOCSY, ^15N-edited TOCSY-HSQC and NOESY-HSQC. Structure determination of the third Grb4 SH3 domain was conducted by a standard CNS (Crystallography and NMR System) protocol as described in our previous publication (Li M, et al., 2004, Eur J. Biochem. 271, 3512-22) with NOE constraints derived from ^15N- and ^13C-NOESY spectra and dihedral angle constraints from TALOS prediction using 5 different chemical shifts. The accepted NMR structure with the lowest energy was selected for analysis and manipulation to generate FIG. 1 by use of MolMol graphic software (Koradi, R., et al., (1996) J. Mol. Graphics. 14, 51-55.). […]

The target in experiment [2] is T2, Grb4 SH3_3 (third SH3 domain, Grb4 residues 199-257). Briefly: Isothermal titration calorimetry of Nogo fragments with Grb4 SH3_3. It is filed as binding. The procedure:
as §1
Both Nogo-A (1-200) and Grb4 (115-257) were further dissected into different Nogo fragments and two different […] domains based on sequence alignment as detailed in Table 1 and the interactions among them were studied first by NMR HSQC titration followed by isothermal titration calorimetry (ITC) to obtain thermodynamic parameters of the binding interaction. As presented in Table 2, two complete sets of thermodynamic parameters were derived from ITC measurements, one set for the interaction between Nogo-A (32-200) and the third Grb4 SH3 domain and another set for the interaction between the 11-residue Nogo-A (171-181) and the third Grb4 SH3 domain. […] Many factors account for this observation. One possibility is that in the Nogo-A (32-200) protein, this 11-residue binding region is less accessible. Alternatively, the presence of other regions without any significant contribution to the binding will unavoidably reduce the binding affinity.
For orientation: ITC needs no label: the signal is the heat of the interaction.

Experiment [3] concerns the target T3, Grb4 SH3_3 (third SH3 domain, Grb4 residues 199-257). The experiment in a line: 1H-15N NMR HSQC titration of Nogo fragments with Grb4 SH3_3. In kind it is binding. Particulars: two-fold excess of the peptide (FIG. 1b). As for the experimental part: as §1
(§2) The ^1H-^15N HSQC titration experiments were conducted according to our previous procedure (Song J. (2003) J Biol Chem. 278, 24714-20). […]
To further validate the identified binding interaction, we determined the solution structure of the third Grb4 SH3 domain by use of heteronuclear tripleresonance NMR methodology as described briefly in Examples 1 and 2. […]

Experiment [4] concerns the target B3. The experiment in a line: ITC at 25 C, Nogo in syringe, SH3_3 (25 µM) in cell, Tris pH 7.0. On the set-up: ΔS: unit not given here. The procedure: as §1
The target in experiment [5] is T4, Grb4 SH3_23 (second and third SH3 domains, Grb4 residues 115-257). Briefly: Isothermal titration calorimetry of Nogo fragments with Grb4 SH3_23. In kind it is binding. Particulars: Grb4 fragment SH3_23. As for the experimental part: as §1
(§3) Both Nogo-A (1-200) and Grb4 (115-257) were further dissected into different Nogo fragments and two different […] domains based on sequence alignment as detailed in Table 1 and the interactions among them were studied first by NMR HSQC titration followed by isothermal titration calorimetry (ITC) to obtain thermodynamic parameters of the binding interaction. […]

Experiment [6] has as its target T1, Grb4 SH3_2 (second SH3 domain, Grb4 residues 115-170). Briefly: Isothermal titration calorimetry of Nogo fragments with Grb4 SH3_2. It is filed as binding. Particulars: Grb4 fragment SH3_2. As for the experimental part: as §1, §3
Experiment [7] has as its target B3. The experiment in a line: ITC at 25 C, peptide in syringe, SH3_3 (50 µM) in cell, Tris pH 7.0. On the set-up: ΔS: unit not given here. The procedure:
as §1

Experiment [8] deals with B3. Briefly: ITC, comparison of the two sets of Table 2. The procedure: as §1
The experiment “Nogo-A (32-200)” deals with B1. The experiment in a line: ITC at 25 C, Nogo in syringe, SH3_3 (25 µM) in cell, Tris pH 7.0. The arrangement: ΔS: unit not given here. As for the experimental part:
as §1

For experiment [9], the target named is T4, Grb4 SH3_23 (second and third SH3 domains, Grb4 residues 115-257). The experiment in a line: 1H-15N NMR HSQC titration of Nogo fragments with Grb4 SH3_23. In kind it is binding. Particulars: four-fold excess of unlabelled Nogo protein; pH 6.8, 20° C. (FIG. 2). The procedure: as §1, §2
The present inventors also determined whether a cross-talk existed between Nogo and Eph receptor-ephrinB mediated signalling networks, and whether Grb4 was the convergence point. […]

[10] abbreviates: ITC at 25° C., Tris pH 7.0, Nogo in syringe, SH3_3 in cell (25 or 50 μM).

Usually Kd stands for the concentration at which binding is half-saturated.

For the molecule `CC(=O)N[C@@H](CO)C(=O)N[C@H](C(=O)N1CCC[C@H]1C(=O)N[C@@H](C)C(=O)N[C@@H](C)C(=O)N1CCC[C@H]1C(=O)N[C@@H](CCCCN)C(=O)N[C@@H](CCCNC(=N)N)C(=O)N[C@@H](CCCNC(=N)N)C(=O)NCC(=O)N[C@@H](CO)C(N)=O)[C@@H](C)O` [Nogo-A (171-181), Ac-STPAAPKRRGS-NH2] (Ac-STPAAPKRRGS-NH2), the “Binding with the second Grb4 SH3 domain (specificity statement)” value in experiment [1] is given as “no significant binding”. Moreover, in experiment [2] (setting [10]), the Ka came to 357000 ± 21000 M⁻¹, binding was characterised by a dissociation constant (Kd) of 2.8 µM, the Stoichiometry n is 0.95 ± 0.068 and the ΔH was −3,310 ± 499 cal/mol. In addition, in experiment [2] (setting [10]), the ΔS was 14.3 cal/(mol·K). Moreover, in [2] (higher than Nogo-A (32-200)), the “Binding affinity to the third Grb4 SH3 domain relative to Nogo-A (32-200)” value is listed as “about 30 fold”. For the same molecule, in [3], the “HSQC peaks of the 15N-labeled third SH3 domain undergoing a significant shift” value is roughly 50%.
Consider “Ac-ARPPPPPPAS-NH2 [Nogo-A (141-150), chemically synthesised peptide, fragment 141-150 of Nogo A]”, for which the “Binding detected by ITC” value in experiment [2] (Grb4 fragment SH3_3) was “Very weak”.
B1: the “Binding detected by NMR” value in experiment [1] was “Very weak”. In experiment [2] (setting [10]), this molecule gave a Ka of 11500 ± 2200 M⁻¹ and a Kd of 87 µM. In experiment [4], this molecule registered a Stoichiometry n of 1.13, a ΔH of 69600 cal/mol and a ΔS of 252. Moreover, the “Binding detected by ITC” value in [5] is recorded as “Very weak”. The “Binding detected by ITC” value in [6] was “Very weak”.
Consider B2, for which, in [7], the Ka worked out at 357000 M⁻¹, the Stoichiometry n turned out to be 0.95, the ΔH is -3310 cal/mol and the ΔS was determined as 14.3. Moreover, in experiment [8], the “fold higher binding affinity than Nogo-A (32-200)” value was roughly 30 fold.
With B3, in the experiment with Nogo-A (32-200), the Ka worked out at 11500 M⁻¹ and binding was characterised by a dissociation constant (Kd) of 87 µM.
As to B4, the “Binding detected by NMR” value in experiment [1] is recorded as “Very weak”. Besides, in experiment [9], the “Shifts of HSQC peaks of 15N-labeled Grb4 (115-257)” value is recorded as “significant shifts of the HSQC peaks”.
